Results reported in article PMC11612794.

Molecular target: 3xFLAG-CENP-T^Δ161–216 (chicken) (UniProt F1NPG5)

“Mis12 complex (Mis12C) containing GFP-Dsn1^WT (from UniProt Q1T769 1-210; A0A8V0ZA15 1-290)” was tested, and the GFP-Dsn1 (Mis12C) level at mitotic kinetochores in CENP-C^Δ73 cells after IAA was 15%.
